T1: GPR1, PathHunter β-Arrestin CHO cell line (human, UniProt P46091 1-355)
T1 sequence (P46091 whole entry, species assumed, looked up): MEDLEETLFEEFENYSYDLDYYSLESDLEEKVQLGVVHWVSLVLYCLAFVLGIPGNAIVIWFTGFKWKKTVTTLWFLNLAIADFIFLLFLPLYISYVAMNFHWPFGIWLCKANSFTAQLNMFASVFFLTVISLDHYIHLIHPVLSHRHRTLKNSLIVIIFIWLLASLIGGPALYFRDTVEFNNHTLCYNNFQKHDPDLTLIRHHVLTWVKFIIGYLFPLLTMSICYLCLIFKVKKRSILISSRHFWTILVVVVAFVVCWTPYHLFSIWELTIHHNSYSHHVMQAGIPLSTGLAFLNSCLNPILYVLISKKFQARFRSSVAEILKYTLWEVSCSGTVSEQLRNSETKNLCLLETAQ

T2: mouse ChemR23, PathHunter β-Arrestin cell line (mouse, UniProt P97468 1-371)
T2 sequence (P97468 whole entry, looked up): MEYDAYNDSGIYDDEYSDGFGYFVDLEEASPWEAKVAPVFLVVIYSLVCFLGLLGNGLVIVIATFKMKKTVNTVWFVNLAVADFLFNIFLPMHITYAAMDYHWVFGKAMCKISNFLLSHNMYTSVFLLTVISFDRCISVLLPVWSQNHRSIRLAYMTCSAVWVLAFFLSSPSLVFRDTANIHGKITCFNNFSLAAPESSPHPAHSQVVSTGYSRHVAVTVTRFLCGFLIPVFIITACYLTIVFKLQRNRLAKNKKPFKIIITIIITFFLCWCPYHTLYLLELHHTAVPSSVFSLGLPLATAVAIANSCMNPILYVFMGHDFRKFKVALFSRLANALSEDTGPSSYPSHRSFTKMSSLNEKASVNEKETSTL

T3: human ChemR23, cAMP Hunter cell line (human, UniProt Q99788 1-373)
T3 sequence (looked up): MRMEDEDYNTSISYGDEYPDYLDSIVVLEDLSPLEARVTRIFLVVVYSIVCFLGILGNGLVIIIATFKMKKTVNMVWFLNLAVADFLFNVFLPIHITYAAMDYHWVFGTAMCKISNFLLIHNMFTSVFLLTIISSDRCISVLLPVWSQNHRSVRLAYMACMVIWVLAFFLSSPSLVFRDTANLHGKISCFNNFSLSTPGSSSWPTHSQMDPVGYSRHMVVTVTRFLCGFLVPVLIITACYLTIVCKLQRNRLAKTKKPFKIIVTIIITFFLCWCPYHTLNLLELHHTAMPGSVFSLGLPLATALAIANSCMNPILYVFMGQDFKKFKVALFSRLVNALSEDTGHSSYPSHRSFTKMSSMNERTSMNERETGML


Molecular target: T1, GPR1, PathHunter β-Arrestin CHO cell …
Test: cell-based or functional assay

Binder | % Max Activity, PathHunter β-Arrestin agonist [%] | % Max Inhibition, PathHunter β-Arrestin antagonist against chemerin at EC80 [%] | [EC50] (M), PathHunter β-Arrestin agonist [M] | [IC50] (M), PathHunter β-Arrestin antagonist against chemerin at EC80 [M]
AGEDPHSFYFPGQFA [human chemerin C15 peptide] | 10.6 | 0 | 0.017 | > 1e-05
AGEDPHSFYFPGQFAFS [human chemerin C17 peptide] | 80.9 | 0 | 1.5e-09 | > 1e-05
AGEDPHGYFLPGQFA [mouse chemerin C15 peptide] | 27.8 | 0 | 3.7e-06 | > 1e-05
AGEDPHSFYFPGQFAF [human chemerin C16 peptide] | 87.9 | 0 | 2.1e-09 | > 1e-05

Molecular target: human ChemR23 (CMKLR1), PathHunter β-Arrestin CHO cell line (human, UniProt Q99788 1-373)
Test: cell-based or functional assay

Binder | % Max Activity, PathHunter β-Arrestin agonist [%] | % Max Inhibition, PathHunter β-Arrestin antagonist against chemerin at EC80 [%] | [EC50] (M), PathHunter β-Arrestin agonist [M] | [IC50] (M), PathHunter β-Arrestin antagonist against chemerin at EC80 [M]
AGEDPHSFYFPGQFA [human chemerin C15 peptide] | 0.8 | 0 | > 1e-05 | > 1e-05
AGEDPHSFYFPGQFAFS [human chemerin C17 peptide] | 67.5 | 0 | 4.8e-07 | > 1e-05
AGEDPHGYFLPGQFA [mouse chemerin C15 peptide] | 0.4 | 0 | > 1e-05 | > 1e-05
AGEDPHSFYFPGQFAF [human chemerin C16 peptide] | 98.6 | 0 | 2.9e-08 | > 1e-05

Molecular target: T2, mouse ChemR23, PathHunter β-Arrestin …
Test: cell-based or functional assay

Binder | EC50, Arrestin, Agonist (RC50, uM) [µM] | IC50, Arrestin, Antagonist (RC50, uM) [µM]
AGEDPHSFYFPGQFA [human chemerin C15 peptide] | > 10 | 9.66
AGEDPHSFYFPGQFAFS [human chemerin C17 peptide] | 0.84 | > 10
AGEDPHGYFLPGQFA [mouse chemerin C15 peptide] | > 10 | > 10
AGEDPHSFYFPGQFAF [human chemerin C16 peptide] | 0.0385 | > 10

Molecular target: T3, human ChemR23, cAMP Hunter cell line
Test: cell-based or functional assay

Binder | IC50, cAMP, Antagonist (RC50, uM) [µM]
AGEDPHSFYFPGQFA [human chemerin C15 peptide] | > 10
AGEDPHSFYFPGQFAFS [human chemerin C17 peptide] | > 10
AGEDPHGYFLPGQFA [mouse chemerin C15 peptide] | > 10
AGEDPHSFYFPGQFAF [human chemerin C16 peptide] | > 10

Reference: patent publication US20160136231A1 (ROGNE BIOSCIENCE, published 2016)
